The supplement of paper PMC9876800

System: peptide library, one residue held at a place counted from the S/T acceptor
Experiment: relative phosphorylation of the sub-library (ratio to the mean residue at this position); human; higher = residue favoured
In short: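 Relative sub-library phosphorylation is the ratio of each sub-library's signal to the mean residue at that position. The signal came from phosphorimaging of spots on streptavidin membranes, quantified by densitometry, after purified recombinant kinases reacted with biotinylated degenerate peptide sub-libraries in 384-well plates. Reactions held 50 μM peptide and 50 μM ATP spiked with γ-32P-ATP for 90 min under kinase-specific conditions.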

PAK3, construct: Full length, sequence (O75914 whole entry, looked up): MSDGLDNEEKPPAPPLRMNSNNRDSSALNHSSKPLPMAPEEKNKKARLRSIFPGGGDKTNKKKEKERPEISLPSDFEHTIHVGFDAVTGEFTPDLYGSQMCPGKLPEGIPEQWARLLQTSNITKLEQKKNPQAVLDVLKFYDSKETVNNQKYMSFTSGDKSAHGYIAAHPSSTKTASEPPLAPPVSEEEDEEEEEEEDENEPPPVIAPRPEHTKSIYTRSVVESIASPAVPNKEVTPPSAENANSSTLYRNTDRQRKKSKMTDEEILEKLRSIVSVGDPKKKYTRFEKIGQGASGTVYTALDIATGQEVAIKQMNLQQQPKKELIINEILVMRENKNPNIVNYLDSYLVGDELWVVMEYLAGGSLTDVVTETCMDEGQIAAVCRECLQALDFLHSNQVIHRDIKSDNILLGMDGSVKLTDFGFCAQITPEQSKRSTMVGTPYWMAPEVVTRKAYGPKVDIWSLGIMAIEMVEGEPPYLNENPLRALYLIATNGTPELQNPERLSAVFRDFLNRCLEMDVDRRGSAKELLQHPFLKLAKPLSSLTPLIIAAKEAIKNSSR
NEK1, construct: aa1-505, sequence (Q96PY6 1-505, looked up): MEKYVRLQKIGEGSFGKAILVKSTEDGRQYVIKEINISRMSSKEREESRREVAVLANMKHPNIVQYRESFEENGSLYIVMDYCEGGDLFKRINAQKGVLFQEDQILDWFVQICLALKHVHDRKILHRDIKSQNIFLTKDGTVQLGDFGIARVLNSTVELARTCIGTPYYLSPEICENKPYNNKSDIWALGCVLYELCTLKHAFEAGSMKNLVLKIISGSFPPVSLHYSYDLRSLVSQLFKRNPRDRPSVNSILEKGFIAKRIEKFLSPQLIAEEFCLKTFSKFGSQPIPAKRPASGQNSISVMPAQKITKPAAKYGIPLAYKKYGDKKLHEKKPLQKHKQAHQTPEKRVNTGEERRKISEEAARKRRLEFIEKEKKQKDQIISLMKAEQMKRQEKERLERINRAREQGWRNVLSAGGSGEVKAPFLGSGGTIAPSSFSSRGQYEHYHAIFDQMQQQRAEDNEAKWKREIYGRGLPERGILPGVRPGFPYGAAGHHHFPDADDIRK
EIF2AK1, construct: Full length, sequence (Q9BQI3 whole entry, looked up): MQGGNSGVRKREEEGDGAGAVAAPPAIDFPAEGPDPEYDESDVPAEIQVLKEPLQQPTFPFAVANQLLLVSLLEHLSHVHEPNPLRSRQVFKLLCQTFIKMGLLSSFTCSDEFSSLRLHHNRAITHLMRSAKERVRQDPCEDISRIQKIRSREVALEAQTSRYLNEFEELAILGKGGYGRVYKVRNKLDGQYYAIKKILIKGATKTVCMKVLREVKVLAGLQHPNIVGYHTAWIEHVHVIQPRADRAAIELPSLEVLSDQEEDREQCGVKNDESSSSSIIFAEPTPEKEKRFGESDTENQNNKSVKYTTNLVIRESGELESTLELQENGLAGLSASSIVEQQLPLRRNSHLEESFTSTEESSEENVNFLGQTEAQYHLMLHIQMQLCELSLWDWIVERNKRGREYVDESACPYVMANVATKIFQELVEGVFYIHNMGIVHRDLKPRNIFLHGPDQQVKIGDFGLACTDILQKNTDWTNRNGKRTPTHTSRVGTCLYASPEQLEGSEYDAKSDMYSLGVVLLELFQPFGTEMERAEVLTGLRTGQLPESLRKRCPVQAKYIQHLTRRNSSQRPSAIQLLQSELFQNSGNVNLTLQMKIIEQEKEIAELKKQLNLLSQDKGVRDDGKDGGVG
NEK6, construct: Full length, sequence (Q9HC98 whole entry, looked up): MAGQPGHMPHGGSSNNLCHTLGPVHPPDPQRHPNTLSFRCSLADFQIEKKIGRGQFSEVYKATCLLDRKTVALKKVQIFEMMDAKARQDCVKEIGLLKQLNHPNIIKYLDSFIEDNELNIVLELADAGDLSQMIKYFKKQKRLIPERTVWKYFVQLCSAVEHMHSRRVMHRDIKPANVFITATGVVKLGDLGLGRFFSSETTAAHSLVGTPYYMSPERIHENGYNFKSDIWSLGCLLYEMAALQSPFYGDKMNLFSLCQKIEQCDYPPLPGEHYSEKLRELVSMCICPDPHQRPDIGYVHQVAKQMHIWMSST

PAK3, construct: Full length (from UniProt O75914)
relative phosphorylation
Details | at +1 | at +2 | at +3 | at +4 | at -1 | at -2 | at -3 | at -4 | at -5
A fixed | 0.949 | 1.12 | 1.05 | 1.07 | 0.974 | 0.862 | 0.985 | 1.32 | 1.33
D fixed | 0.291 | 0.36 | 0.768 | 0.986 | 0.485 | 0.178 | 0.437 | 0.64 | 0.604
E fixed | 0.356 | 0.297 | 0.701 | 0.89 | 0.463 | 0.19 | 0.415 | 0.665 | 0.547
F fixed | 1.14 | 1.37 | 1.37 | 0.847 | 0.752 | 0.471 | 0.59 | 0.732 | 0.876
G fixed | 0.706 | 0.615 | 0.97 | 1.13 | 0.716 | 0.449 | 0.825 | 1.32 | 1.24
H fixed | 1.09 | 1.57 | 1.2 | 1.14 | 1.31 | 1.61 | 1.32 | 1.29 | 1.1
I fixed | 1.27 | 1.19 | 0.983 | 0.777 | 0.701 | 0.624 | 0.494 | 0.629 | 0.643
K fixed | 1.07 | 0.645 | 0.764 | 1.03 | 1.61 | 1.3 | 2.22 | 1.28 | 1.81
L fixed | 1.1 | 1.17 | 1.12 | 0.905 | 1.11 | 0.439 | 0.558 | 0.689 | 0.636
M fixed | 1.54 | 1.04 | 1.02 | 0.933 | 1.12 | 0.48 | 0.693 | 0.873 | 0.681
N fixed | 0.749 | 0.728 | 0.847 | 1.03 | 1.04 | 0.584 | 0.825 | 0.966 | 0.863
P fixed | 0.21 | 0.655 | 0.976 | 1.45 | 0.611 | 0.817 | 0.823 | 1.14 | 1.09
Q fixed | 1.09 | 0.729 | 0.886 | 1.17 | 1 | 0.715 | 0.878 | 1.05 | 0.93
R fixed | 1.35 | 0.853 | 0.819 | 0.933 | 2.06 | 6.37 | 3.73 | 1.86 | 2.24
V fixed | 1.12 | 1.11 | 0.955 | 0.908 | 0.914 | 0.748 | 0.512 | 0.756 | 0.757
W fixed | 1.66 | 1.11 | 1.26 | 1.04 | 0.976 | 0.423 | 0.907 | 0.901 | 0.812
Y fixed | 1.3 | 2.44 | 1.3 | 0.753 | 1.16 | 0.747 | 0.785 | 0.89 | 0.852
pThr fixed | 0.479 | 0.471 | 0.632 | 0.99 | 0.367 | 0.411 | 0.546 | 0.754 | 0.574
pTyr fixed | 0.635 | 2.43 | 0.9 | 0.76 | 0.605 | 0.323 | 0.743 | 0.654 | 0.619

NEK6, construct: Full length (from UniProt Q9HC98)
relative phosphorylation
Details | at +1 | at +2 | at +3 | at +4 | at -1 | at -2 | at -3 | at -4 | at -5
A fixed | 0.844 | 1.17 | 0.962 | 0.822 | 1.21 | 1.16 | 1.04 | 1.26 | 1.16
D fixed | 0.481 | 0.764 | 0.624 | 0.699 | 1.47 | 2.91 | 0.911 | 2.11 | 2.07
E fixed | 0.344 | 0.325 | 0.564 | 0.578 | 1.96 | 1.89 | 0.611 | 1.18 | 1.15
F fixed | 1.46 | 0.69 | 0.987 | 0.886 | 0.525 | 0.647 | 1.61 | 0.839 | 0.875
G fixed | 1.02 | 1.27 | 1.69 | 1.26 | 0.75 | 1.75 | 1.06 | 1.13 | 1.36
H fixed | 1.2 | 1.23 | 1.13 | 1.02 | 1.13 | 0.982 | 0.792 | 0.894 | 0.979
I fixed | 0.646 | 0.568 | 0.537 | 0.616 | 0.434 | 0.425 | 0.495 | 0.531 | 0.632
K fixed | 0.65 | 1.61 | 1.4 | 1.78 | 1.22 | 0.663 | 0.48 | 0.837 | 0.849
L fixed | 0.886 | 0.443 | 0.767 | 0.593 | 0.72 | 0.612 | 2.04 | 0.735 | 0.747
M fixed | 1.57 | 0.747 | 0.704 | 0.626 | 0.859 | 0.789 | 1.2 | 0.71 | 0.753
N fixed | 1.2 | 1.87 | 1.24 | 0.917 | 1.38 | 1.6 | 0.869 | 1.29 | 1.16
P fixed | 0.367 | 0.985 | 1.12 | 1.4 | 0.326 | 0.521 | 1.78 | 1.32 | 1.09
Q fixed | 1.68 | 0.722 | 1.02 | 1.07 | 1.56 | 0.728 | 0.62 | 0.894 | 0.819
R fixed | 0.986 | 2.23 | 1.4 | 1.4 | 1.51 | 0.663 | 0.463 | 0.869 | 0.685
V fixed | 0.602 | 0.533 | 0.568 | 0.707 | 0.578 | 0.436 | 0.503 | 0.549 | 0.88
W fixed | 1.5 | 0.87 | 1.38 | 1.36 | 0.619 | 0.577 | 1.25 | 1.1 | 1.04
Y fixed | 1.56 | 0.989 | 0.901 | 1.27 | 0.744 | 0.65 | 1.27 | 0.75 | 0.767
pThr fixed | 0.602 | 0.396 | 0.534 | 0.628 | 0.494 | 0.773 | 0.677 | 0.906 | 0.992
pTyr fixed | 0.822 | 0.356 | 0.653 | 0.545 | 2.57 | 1.53 | 1.01 | 1.01 | 0.799

EIF2AK1, construct: Full length (from UniProt Q9BQI3)
relative phosphorylation
Details | at +1 | at +2 | at +3 | at +4 | at -1 | at -2 | at -3 | at -4 | at -5
A fixed | 0.697 | 0.999 | 0.699 | 0.762 | 0.698 | 0.907 | 1.04 | 0.971 | 0.979
D fixed | 0.365 | 0.489 | 0.403 | 0.602 | 1.26 | 3.35 | 1.11 | 0.87 | 0.672
E fixed | 0.358 | 0.382 | 0.388 | 0.565 | 1.01 | 2.47 | 0.857 | 0.724 | 0.619
F fixed | 1.5 | 0.874 | 1.3 | 0.975 | 1.09 | 0.752 | 0.955 | 1.15 | 1.31
G fixed | 1.21 | 0.923 | 1.09 | 0.945 | 0.469 | 0.846 | 0.936 | 0.89 | 0.897
H fixed | 0.788 | 1.24 | 1.12 | 1.01 | 1.56 | 1.1 | 1.04 | 1.03 | 0.962
I fixed | 1.24 | 0.954 | 0.788 | 0.809 | 1.19 | 0.606 | 1.09 | 1.1 | 1.29
K fixed | 0.975 | 1.74 | 1.59 | 1.49 | 0.796 | 0.648 | 0.864 | 0.998 | 1
L fixed | 1.08 | 0.747 | 0.904 | 0.936 | 1.15 | 0.56 | 1.07 | 1.06 | 1.08
M fixed | 1.77 | 0.895 | 0.938 | 0.893 | 1.16 | 0.726 | 1.29 | 1.07 | 1.04
N fixed | 0.991 | 1.12 | 0.808 | 0.964 | 1.14 | 0.783 | 0.904 | 0.826 | 0.728
P fixed | 0.293 | 0.692 | 0.917 | 0.893 | 0.374 | 0.581 | 0.695 | 0.73 | 0.79
Q fixed | 1.02 | 0.889 | 0.77 | 0.923 | 0.761 | 0.809 | 0.842 | 0.751 | 0.696
R fixed | 1.79 | 1.99 | 2.1 | 1.9 | 1.07 | 0.73 | 0.958 | 1.03 | 1.16
V fixed | 0.705 | 0.903 | 0.733 | 0.612 | 1.07 | 0.58 | 0.731 | 0.93 | 1.06
W fixed | 1.02 | 0.918 | 1.26 | 1.57 | 0.731 | 0.787 | 1.23 | 1.59 | 1.44
Y fixed | 1.2 | 1.25 | 1.19 | 1.15 | 1.46 | 0.764 | 1.38 | 1.28 | 1.27
pThr fixed | 0.374 | 0.484 | 0.489 | 0.601 | 0.504 | 0.816 | 0.761 | 0.647 | 0.631
pTyr fixed | 0.536 | 0.481 | 0.569 | 0.607 | 2.17 | 0.943 | 0.981 | 0.732 | 0.792

NEK1, construct: aa1-505 (from UniProt Q96PY6)
relative phosphorylation
Details | at +1 | at +2 | at +3 | at +4 | at -1 | at -2 | at -3 | at -4 | at -5
A fixed | 0.882 | 1.08 | 0.91 | 1.02 | 1.2 | 1 | 0.996 | 1.04 | 0.968
D fixed | 0.22 | 0.456 | 0.504 | 0.774 | 0.566 | 0.69 | 0.378 | 0.781 | 0.764
E fixed | 0.268 | 0.389 | 0.41 | 0.732 | 0.713 | 0.706 | 0.373 | 0.785 | 0.678
F fixed | 1.36 | 0.744 | 1.2 | 0.804 | 0.891 | 0.98 | 1.61 | 1.06 | 1.15
G fixed | 1.11 | 0.85 | 1.05 | 1.18 | 1.3 | 1.2 | 1.41 | 1.3 | 1.06
H fixed | 1.02 | 1.22 | 1.03 | 1.11 | 1.21 | 1.08 | 1.14 | 0.962 | 1.05
I fixed | 1.27 | 0.769 | 0.991 | 0.792 | 0.424 | 0.849 | 0.571 | 0.844 | 0.858
K fixed | 1.16 | 2.06 | 1.03 | 1.38 | 1.46 | 0.75 | 1.03 | 1.33 | 1.24
L fixed | 1.32 | 0.939 | 1.17 | 1 | 1.08 | 1.58 | 1.82 | 1.12 | 1.1
M fixed | 1.67 | 0.975 | 0.907 | 0.93 | 1.41 | 1.24 | 1.62 | 0.996 | 1.13
N fixed | 0.61 | 1.02 | 0.935 | 0.912 | 1.05 | 1.29 | 0.629 | 0.87 | 0.959
P fixed | 0.142 | 0.95 | 1.12 | 1.15 | 0.558 | 0.677 | 1.25 | 1.14 | 1.4
Q fixed | 1.05 | 0.706 | 0.724 | 1.01 | 0.889 | 1.04 | 0.668 | 0.799 | 0.889
R fixed | 1.51 | 2.21 | 1.63 | 1.38 | 1.57 | 1.27 | 0.919 | 1.08 | 1.15
V fixed | 0.958 | 0.914 | 0.851 | 0.78 | 0.522 | 0.713 | 0.444 | 0.783 | 0.82
W fixed | 1.27 | 0.727 | 1.37 | 1.29 | 0.895 | 1.04 | 1.08 | 1.23 | 0.947
Y fixed | 1.18 | 0.996 | 1.18 | 0.738 | 1.26 | 0.89 | 1.06 | 0.887 | 0.835
pThr fixed | 0.424 | 0.571 | 0.507 | 0.579 | 0.323 | 0.516 | 0.508 | 0.746 | 0.905
pTyr fixed | 0.397 | 0.434 | 0.642 | 0.547 | 0.707 | 0.523 | 0.648 | 0.851 | 1.03
